The values below come from patent publication US20240018502.

Data set [1] concerns the target human complement protein C3.
Data set [2] concerns the target cynomolgus monkey complement protein C3 (endogenous, in vitreous humor).
Data set [3] addresses T1, quenched fluorescence peptidic substrate containing SKGR/SL (P4-P2' of the PAR-2 activation cleavage site, Ser 33 to Leu 38).
T1 chain: SKGRSL

Data set [4] deals with complement protein C3 of cynomolgus monkey plasma.

B1: Modified MTSP-1 protease domain Q38H/I41S/D60bT/F60eS/Y60gW/D96K/F97G/ins97aV/T98P/F99L/C122S/G151H/Q175L/Q192D (protein)
chain: VVGGTDADEGEWPWQVSLHALGHGHSCGASLISPNWLVSAAHCYIDTRGSRWSDPTQWTAFLGLHDQSQRSAPGVQERRLKRIISHPFFNKGVPLDYDIALLELEKPAEYSSMVRPISLPDASHVFPAGKAIWVTGWGHTQYGGTHALILQKGEIRVINQTTCENLLPQLITPRMMCVGFLSGGVDSCDGDSGGPLSSVEADGRIFQAGVVSWGDGCAQRNKPGVYTRLPLFRDWIKENTGV
As to B1, in data set [1], the “ED50 of cleavage of human C3” value is “cleaves human C3 in the assay described herein with an ED50 of 2 nM”; the “anti-C3 activity, fold increase owed to D60bT (against the variant with this residue reverted to wild type)” value is recorded as “D60bT-This mutation increases anti-C3 activity by approximately 2.8-fold”; the “anti-C3 activity, fold increase owed to D96K (against the variant with this residue reverted to wild type)” value is “D96K-This mutation increases anti-C3 activity by approximately 2.6-fold”; the “anti-C3 activity, fold increase owed to F60eS (against the variant with this residue reverted to wild type)” value is listed as “F60eS-This mutation increases anti-C3 activity by approximately 1.9-fold”. In data set [1], the “anti-C3 activity, fold increase owed to F97G (against the variant with this residue reverted to wild type)” value is “F97G-This mutation increases anti-C3 activity by approximately 4.3-fold and increases substrate specificity”; the “anti-C3 activity, fold increase owed to F99L (against the variant with this residue reverted to wild type)” value is recorded as “F99L: This mutation increases anti-C3 activity by approximately 3.9-fold”; the “anti-C3 activity, fold increase owed to G151H (against the variant with this residue reverted to wild type)” value is on record as “G151H: This mutation increases anti-C3 activity by approximately 1.2-fold”; the “anti-C3 activity, fold increase owed to I41S (against the variant with this residue reverted to wild type)” value was “I41S-This mutation increases anti-C3 activity by approximately 44.6-fold”. Besides, in data set [1], the “anti-C3 activity, fold increase owed to Q38H (against the variant with this residue reverted to wild type)” value is listed as “Q38H-This mutation increases C3 activity by approximately 3.7-fold”; the “anti-C3 activity, fold increase owed to Q175L (against the variant with this residue reverted to wild type)” value is “Q175L: This mutation increases anti-C3 activity by approximately 4.3-fold”; the “anti-C3 activity, fold increase owed to T98P (against the variant with this residue reverted to wild type)” value was “T98P: This mutation ... increases anti-C3 activity by approximately 2.2-fold”; the “anti-C3 activity, fold increase owed to Y60gW (against the variant with this residue reverted to wild type)” value was “Y60gW-This mutation increases the enzyme's substrate specificity and increases anti-C3 activity by approximately 4.8-fold”. Moreover, in data set [1], the “anti-C3 activity, fold increase owed to the insertion 97aV (against the variant without the insertion)” value is on record as “Insert 97aV: This mutation ... increases anti-C3 activity by approximately 1.7-fold” and the “reduction of hemolytic activity (C3H50) after preincubation of C3 with the variant” value is reported as “reduces the hemolytic activity of the serum by approximately 80%”. Besides, the “C3 levels in vitreous humor by ELISA after one intravitreal dose of 125 ug” value in data set [2] was “C3 was undetectable in the variant-treated eye 1, 2, 6, and 7 days after the single injection of the anti-C3 MTSP polypeptide”.

B2: Q38H/I41S/D60bT/F60eS/Y60gW/D96V/F97G/ins97aV/T98P/F99L/C122S/G151H/Q175L/Q192D (protein)
chain: VVGGTDADEGEWPWQVSLHALGHGHSCGASLISPNWLVSAAHCYIDTRGSRWSDPTQWTAFLGLHDQSQRSAPGVQERRLKRIISHPFFNVGVPLDYDIALLELEKPAEYSSMVRPISLPDASHVFPAGKAIWVTGWGHTQYGGTHALILQKGEIRVINQTTCENLLPQLITPRMMCVGFLSGGVDSCDGDSGGPLSSVEADGRIFQAGVVSWGDGCAQRNKPGVYTRLPLFRDWIKENTGV
Take B2: the SKGR/SL kcat/Km in data set [3] came out at 4990 M⁻¹ s⁻¹. The ED50 80% human plasma (60 min, nM), C3 cleavage in data set [1] came to 27 nM. In data set [4], the ED50 80% cynomolgus plasma (nM), C3 cleavage, C3 ELISA was 103 nM.

B3: Q38H/I41S/D60bT/F60eS/Y60gW/D96K/F97D/ins97aA/T98P/F99L/C122S/G151N/Q175L/Q192D (protein)
chain: VVGGTDADEGEWPWQVSLHALGHGHSCGASLISPNWLVSAAHCYIDTRGSRWSDPTQWTAFLGLHDQSQRSAPGVQERRLKRIISHPFFNKDAPLDYDIALLELEKPAEYSSMVRPISLPDASHVFPAGKAIWVTGWGHTQYGGTNALILQKGEIRVINQTTCENLLPQLITPRMMCVGFLSGGVDSCDGDSGGPLSSVEADGRIFQAGVVSWGDGCAQRNKPGVYTRLPLFRDWIKENTGV
As for B3, in data set [3], the SKGR/SL kcat/Km came out at 2060 M⁻¹ s⁻¹. This protein returned an ED50 80% human plasma (60 min, nM), C3 cleavage in data set [1] of 44 nM. The same protein yielded an ED50 80% cynomolgus plasma (nM), C3 cleavage, C3 ELISA in data set [4] of 37 nM.

B4: Q38H/I41S/D60bT/F60eS/Y60gW/D96K/F97G/ins97aV/T98P/F99L/C122S/G151H/Q175L/Q192D (protein)
chain: VVGGTDADEGEWPWQVSLHALGHGHSCGASLISPNWLVSAAHCYIDTRGSRWSDPTQWTAFLGLHDQSQRSAPGVQERRLKRIISHPFFNKGVPLDYDIALLELEKPAEYSSMVRPISLPDASHVFPAGKAIWVTGWGHTQYGGTHALILQKGEIRVINQTTCENLLPQLITPRMMCVGFLSGGVDSCDGDSGGPLSSVEADGRIFQAGVVSWGDGCAQRNKPGVYTRLPLFRDWIKENTGV
In turn, B4 showed an SKGR/SL kcat/Km in data set [3] of 6210 M⁻¹ s⁻¹. Moreover, in data set [1], the C3H50 Hemolytic Activity (U/mL), C3-depleted serum plus purified C3; Test Condition #1 (C3 and 8 nM test article incubated separately, no pre-cleavage) was 470 U/mL; the C3H50 Hemolytic Activity (U/mL), C3-depleted serum plus purified C3; Test Condition #1 (C3 and 40 nM test article incubated separately, no pre-cleavage) worked out at 594 U/mL; the C3H50 Hemolytic Activity (U/mL), C3-depleted serum plus purified C3; Test Condition #1 (C3 and 200 nM test article incubated separately, no pre-cleavage) came to 438 U/mL; the C3H50 Hemolytic Activity (U/mL), C3-depleted serum plus purified C3; Test Condition #2 (C3 pre-incubated 2 h at 37 C with 8 nM test article) turned out to be 295 U/mL. Moreover, in data set [1], the C3H50 Hemolytic Activity (U/mL), C3-depleted serum plus purified C3; Test Condition #2 (C3 pre-incubated 2 h at 37 C with 40 nM test article) stood at 97.9 U/mL; the C3H50 Hemolytic Activity (U/mL), C3-depleted serum plus purified C3; Test Condition #2 (C3 pre-incubated 2 h at 37 C with 200 nM test article) turned out to be 73.7 U/mL; the CH50 hemolytic activity (U/mL), human citrated plasma after 1 h at 37 C with 3.2 nM test article stood at 73 U/mL; the CH50 hemolytic activity (U/mL), human citrated plasma after 1 h at 37 C with 16 nM test article worked out at 69 U/mL. In data set [1], this protein displayed a CH50 hemolytic activity (U/mL), human citrated plasma after 1 h at 37 C with 80 nM test article of 41.5 U/mL; a CH50 hemolytic activity (U/mL), human citrated plasma after 1 h at 37 C with 400 nM test article of 10.8 U/mL; a CH50 hemolytic activity (U/mL), human citrated plasma after 1 h at 37 C with 2000 nM test article of 5.56 U/mL; an ED50 80% human plasma (60 min, nM), C3 cleavage of 25 nM. This protein displayed an ED50 80% cynomolgus plasma (nM), C3 cleavage, C3 ELISA in data set [4] of 92 nM.
